From patent publication US20240368283A1 (published 2024)

T1: human FcγRIIβ (human, UniProt P31994 46-217, limits assumed)
T1 construct: also called FcγRIIb; R2b
T1 sequence (looked up): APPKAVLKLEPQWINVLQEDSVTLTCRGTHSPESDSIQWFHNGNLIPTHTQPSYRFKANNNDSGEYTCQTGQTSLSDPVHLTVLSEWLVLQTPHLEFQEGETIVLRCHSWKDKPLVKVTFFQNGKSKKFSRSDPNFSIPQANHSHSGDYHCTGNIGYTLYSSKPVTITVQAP

T2: huFcγRIIβ (human, UniProt P31994 46-217)
T2 construct: also called huR2b; human FcγRIIβ (soluble antigen)
T2 sequence (looked up): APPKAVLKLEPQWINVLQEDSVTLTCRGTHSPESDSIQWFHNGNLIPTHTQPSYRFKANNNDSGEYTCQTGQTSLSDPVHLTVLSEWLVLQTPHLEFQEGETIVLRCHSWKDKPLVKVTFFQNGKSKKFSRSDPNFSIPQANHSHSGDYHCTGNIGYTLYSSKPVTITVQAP

T3: huFcγRIIα (R131) (human, UniProt P12318 36-218)
T3 construct: R131 allotype; also called human FcγRIIα R131 (soluble antigen)
T3 sequence (looked up): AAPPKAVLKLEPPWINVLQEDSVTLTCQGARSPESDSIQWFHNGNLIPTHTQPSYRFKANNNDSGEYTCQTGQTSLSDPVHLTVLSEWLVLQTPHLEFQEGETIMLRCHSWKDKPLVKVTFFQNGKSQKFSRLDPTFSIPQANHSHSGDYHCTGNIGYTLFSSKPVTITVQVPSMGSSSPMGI


Experiments:
human FcγRIIβ [1] = target: T1, human FcγRIIβ; assay: SPR, antibody captured on ProA/G HC30M chip, recombinant human FcγRIIβ injected (4 nM-5 uM); average kinetic KD
Protocol: (§1) Example 52: The binding of anti-FcγRIIβ antibodies to human FcγRIIβ was evaluated. Antibodies were captured on ProA/G HC30M chip at 5 ug/mL, 1 ug/mL, and 0.2 ug/mL for 15 minutes. Six buffer injections were made over the chip followed by injections of increasing concentrations of recombinant human FcγRIIβ (4 nm-5 uM). The association was measured during each injection for 5 minutes and the dissociation was measured for 10 minutes post injection with buffer flow (1×HBSTE+ BSA).

human FcγRIIβ [2] = target: T1, human FcγRIIβ; assay: SPR, antibody captured on ProA/G HC30M chip, recombinant human FcγRIIβ injected (4 nM-5 uM); average steady state KD
Protocol: as §1

huFcγRIIβ [3] = target: T2, huFcγRIIβ; assay: SPR, antibody captured on protein A/G chip, receptor injected as analyte
Protocol: (§2) Example 21: Anti-FcγRIIβ antibodies were captured on protein A/G chips at 10 ug/mL, 1 ug/mL and 0.1 ug/mL concentrations (in duplicates). Each analyte binder was injected at 7 concentrations with 5-fold serial dilutions, with the starting concentration for FcγRs at 5 uM, and for PD-1 at 0.5 uM. […] Kinetics data was subsequently collected.

CyR2b = target: T4, CyR2b (monkey); assay: as above
T4 construct: also called monkey FcγRIIβ; Cy FcγRIIβ
Protocol: as §2

CyR2a = target: T5, CyR2a (monkey); assay: as above
T5 construct: also called monkey FcγRIIα; Cy FcγRIIα
Protocol: as §2

huR2a = huR2a (human, UniProt P12318 36-218); assay: as above
Protocol: as §2

human FcγRI = human FcγRI (human, UniProt P12314 16-288, limits assumed); assay: BLI, antibody captured on AHC biosensors, receptor in two-fold dilutions
Protocol: (§3) Example 20: Anti-FcγRIIβ antibodies were captured on AHC biosensors at a concentration of 5 μg/mL. Antigens (FcγRI or FcγRIIIα) were serially diluted two-fold with a starting concentration of 5 μM. The biosensors with immobilized antibodies were dipped into the different antigen concentrations and kinetics data were collected.

human FcγRIIIα = human FcγRIIIα (human, UniProt P08637 17-208, limits assumed); assay: as above
Protocol: as §3

FcRN = target: T6, FcRN; assay: BLI (AHC biosensors by Example 20); table headed FcRN Binding
T6 construct: also called neonatal Fc receptor

huFcγRIIβ [4] = target: T2, huFcγRIIβ; assay: BLI, antibody captured on AHC biosensors, receptor in solution
Protocol: as §3, with “19:” for “20:”, “(FcγRIIα/FcγRIIβ)” for “(FcγRI or FcγRIIIα)”, “5u M.” for “5 μM.”

huFcγRIIα (R131) = target: T3, huFcγRIIα (R131); assay: as above
Protocol: as §3, with “19:” for “20:”, “(FcγRIIα/FcγRIIβ)” for “(FcγRI or FcγRIIIα)”, “5u M.” for “5 μM.”

huFcγRIIβ [5] = target: T2, huFcγRIIβ; assay: BLI; ratio of the KD for huFcγRIIα (R131) to the KD for huFcγRIIβ
Protocol: as §3, with “19:” for “20:”, “(FcγRIIα/FcγRIIβ)” for “(FcγRI or FcγRIIIα)”, “5u M.” for “5 μM.”

Chain of human FcγRI (P12314 16-288 limits assumed): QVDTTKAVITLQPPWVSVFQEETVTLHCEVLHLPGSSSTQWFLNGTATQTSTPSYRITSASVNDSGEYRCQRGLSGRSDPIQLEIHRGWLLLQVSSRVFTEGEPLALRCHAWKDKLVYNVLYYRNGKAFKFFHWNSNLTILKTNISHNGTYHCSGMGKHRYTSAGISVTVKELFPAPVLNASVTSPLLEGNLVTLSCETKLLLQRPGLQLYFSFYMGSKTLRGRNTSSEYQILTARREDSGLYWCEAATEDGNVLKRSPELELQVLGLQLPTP
Chain of human FcγRIIIα (P08637 17-208 limits assumed): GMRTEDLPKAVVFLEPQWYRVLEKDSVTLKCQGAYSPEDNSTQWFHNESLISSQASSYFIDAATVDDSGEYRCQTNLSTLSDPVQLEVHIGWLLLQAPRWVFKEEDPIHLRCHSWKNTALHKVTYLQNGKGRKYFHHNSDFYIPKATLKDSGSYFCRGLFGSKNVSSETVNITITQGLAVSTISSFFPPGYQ

Kd (huFcγRIIβ [3]) | Kd (CyR2b) | Kd (CyR2a) | Kd (huR2a) | Kd (FcRN) | koff (FcRN) | kon (FcRN) | Kd (huFcγRIIβ [4]) | Kd (huFcγRIIα (R131)) | Fold selectivity (huFcγRIIβ [5]) | Binder | binding result (human FcγRI) | binding result (human FcγRIIIα) | also measured
– | – | – | – | – | – | – | – | – | – | ARB40 (antibody, human IgG1, kappa, copies: 2 + 2) heavy: not shown light: DIVMTQSPLSLPVTPGEPASISCRSSRSLVHGSGDNYLHWYLQKPGQSPQLLIYMASNRAPGVPDRFSGSGSGTDFTLKISRVEAEDVGVYYCMQALRAPFSFGGGTKVEIKRTVAAPSVFIFPPSDEQLKSGTASVVCLLNNFYPREAKVQWKVDNALQSGNSQESVTEQDSKDSTYSLSSTLTLSKADYEKHKVYACEVTHQGLSSPVTKSFNRGEC | – | – | Kd (human FcγRIIβ [1]): 120 nM; Kd (human FcγRIIβ [2]): 120 nM
56.1 nM | 1210 nM | 1120 nM | 633 nM | – | – | – | – | – | – | TA30 (bispecific antibody, human IgG1, kappa) heavy: not shown light: DIQMTQSPSSLSASVGDRVTITCQASQSPNNLLAWYQQKPGKAPKLLIYGASDLPSGVPSRFSGSGSGTDFTLTISSLQPEDFATYYCQNNYYVGPVSYAFGGGTKVEIKRTVAAPSVFIFPPSDEQLKSGTASVVCLLNNFYPREAKVQWKVDNALQSGNSQESVTEQDSKDSTYSLSSTLTLSKADYEKHKVYACEVTHQGLSSPVTKSFNRGEC | – | – | –
– | – | – | – | – | – | – | – | – | – | TA28 (bispecific antibody, human IgG1, kappa) heavy: not shown light: DIQMTQSPSSLSASVGDRVTITCQASQSPNNLLAWYQQKPGKAPKLLIYGASDLPSGVPSRFSGSGSGTDFTLTISSLQPEDFATYYCQNNYYVGPVSYAFGGGTKVEIKRTVAAPSVFIFPPSDEQLKSGTASVVCLLNNFYPREAKVQWKVDNALQSGNSQESVTEQDSKDSTYSLSSTLTLSKADYEKHKVYACEVTHQGLSSPVTKSFNRGEC [TA28, listing 1 of 2 here] | no binding (tested: 5 µM starting concentration) | no binding (tested: 5 µM starting concentration) | –
– | – | – | – | 250 nM | 0.1 s⁻¹ | 400000 M⁻¹ s⁻¹ | 30.3 nM | 115 nM | 4 fold | TA39 (bispecific antibody, human IgG1, kappa) heavy: not shown light: DIQMTQSPSSLSASVGDRVTITCQASQSPNNLLAWYQQKPGKAPKLLIYGASDLPSGVPSRFSGSGSGTDFTLTISSLQPEDFATYYCQNNYYVGPVSYAFGGGTKVEIKRTVAAPSVFIFPPSDEQLKSGTASVVCLLNNFYPREAKVQWKVDNALQSGNSQESVTEQDSKDSTYSLSSTLTLSKADYEKHKVYACEVTHQGLSSPVTKSFNRGEC [TA39, listing 1 of 2 here] | – | – | –
299 nM | 3660 nM | 2300 nM | 4060 nM | 289 nM | 0.118 s⁻¹ | 407000 M⁻¹ s⁻¹ | 45 nM | 141 nM | 3 fold | TA36 (bispecific antibody, human IgG1, kappa) heavy: not shown light: DIQMTQSPSSLSASVGDRVTITCQASQSPNNLLAWYQQKPGKAPKLLIYGASDLPSGVPSRFSGSGSGTDFTLTISSLQPEDFATYYCQNNYYVGPVSYAFGGGTKVEIKRTVAAPSVFIFPPSDEQLKSGTASVVCLLNNFYPREAKVQWKVDNALQSGNSQESVTEQDSKDSTYSLSSTLTLSKADYEKHKVYACEVTHQGLSSPVTKSFNRGEC [TA36, listing 1 of 2 here] | – | – | –
– | – | – | – | – | – | – | – | – | – | TA26 (bispecific antibody, human IgG1, kappa) heavy: not shown light: DIQMTQSPSSLSASVGDRVTITCQASQSPNNLLAWYQQKPGKAPKLLIYGASDLPSGVPSRFSGSGSGTDFTLTISSLQPEDFATYYCQNNYYVGPVSYAFGGGTKVEIKRTVAAPSVFIFPPSDEQLKSGTASVVCLLNNFYPREAKVQWKVDNALQSGNSQESVTEQDSKDSTYSLSSTLTLSKADYEKHKVYACEVTHQGLSSPVTKSFNRGEC [TA26, listing 1 of 2 here] | no binding (tested: 5 µM starting concentration) | no binding (tested: 5 µM starting concentration) | –
– | – | – | – | – | – | – | – | – | – | TA36 (bispecific antibody, human IgG1, kappa) heavy: not shown light: DIQMTQSPSSLSASVGDRVTITCQASQSPNNLLAWYQQKPGKAPKLLIYGASDLPSGVPSRFSGSGSGTDFTLTISSLQPEDFATYYCQNNYYVGPVSYAFGGGTKVEIKRTVAAPSVFIFPPSDEQLKSGTASVVCLLNNFYPREAKVQWKVDNALQSGNSQESVTEQDSKDSTYSLSSTLTLSKADYEKHKVYACEVTHQGLSSPVTKSFNRGEC [TA36, listing 2 of 2 here] | no binding (tested: 5 µM starting concentration) | no binding (tested: 5 µM starting concentration) | –
– | – | – | – | 273 nM | 0.103 s⁻¹ | 378000 M⁻¹ s⁻¹ | 11 nM | 623 nM | 56 fold | TA28 (bispecific antibody, human IgG1, kappa) heavy: not shown light: DIQMTQSPSSLSASVGDRVTITCQASQSPNNLLAWYQQKPGKAPKLLIYGASDLPSGVPSRFSGSGSGTDFTLTISSLQPEDFATYYCQNNYYVGPVSYAFGGGTKVEIKRTVAAPSVFIFPPSDEQLKSGTASVVCLLNNFYPREAKVQWKVDNALQSGNSQESVTEQDSKDSTYSLSSTLTLSKADYEKHKVYACEVTHQGLSSPVTKSFNRGEC [TA28, listing 2 of 2 here] | – | – | –
154 nM | 3130 nM | 2480 nM | 6510 nM | 236 nM | 0.0951 s⁻¹ | 403000 M⁻¹ s⁻¹ | 50.2 nM | 715 nM | 14 fold | TA26 (bispecific antibody, human IgG1, kappa) heavy: not shown light: DIQMTQSPSSLSASVGDRVTITCQASQSPNNLLAWYQQKPGKAPKLLIYGASDLPSGVPSRFSGSGSGTDFTLTISSLQPEDFATYYCQNNYYVGPVSYAFGGGTKVEIKRTVAAPSVFIFPPSDEQLKSGTASVVCLLNNFYPREAKVQWKVDNALQSGNSQESVTEQDSKDSTYSLSSTLTLSKADYEKHKVYACEVTHQGLSSPVTKSFNRGEC [TA26, listing 2 of 2 here] | – | – | –
– | – | – | – | – | – | – | – | – | – | TA39 (bispecific antibody, human IgG1, kappa) heavy: not shown light: DIQMTQSPSSLSASVGDRVTITCQASQSPNNLLAWYQQKPGKAPKLLIYGASDLPSGVPSRFSGSGSGTDFTLTISSLQPEDFATYYCQNNYYVGPVSYAFGGGTKVEIKRTVAAPSVFIFPPSDEQLKSGTASVVCLLNNFYPREAKVQWKVDNALQSGNSQESVTEQDSKDSTYSLSSTLTLSKADYEKHKVYACEVTHQGLSSPVTKSFNRGEC [TA39, listing 2 of 2 here] | no binding (tested: 5 µM starting concentration) | no binding (tested: 5 µM starting concentration) | –
253 nM | 1500 nM | 777 nM | 6080 nM | 231 nM | 0.0788 s⁻¹ | 341000 M⁻¹ s⁻¹ | 122 nM | 114000 nM | 934 fold | TA25 (bispecific antibody, human IgG1, kappa) heavy: not shown light: DIQMTQSPSSLSASVGDRVTITCQASQSPNNLLAWYQQKPGKAPKLLIYGASDLPSGVPSRFSGSGSGTDFTLTISSLQPEDFATYYCQNNYYVGPVSYAFGGGTKVEIKRTVAAPSVFIFPPSDEQLKSGTASVVCLLNNFYPREAKVQWKVDNALQSGNSQESVTEQDSKDSTYSLSSTLTLSKADYEKHKVYACEVTHQGLSSPVTKSFNRGEC [TA25, listing 1 of 2 here] | – | – | –
– | – | – | – | – | – | – | – | – | – | TA25 (bispecific antibody, human IgG1, kappa) heavy: not shown light: DIQMTQSPSSLSASVGDRVTITCQASQSPNNLLAWYQQKPGKAPKLLIYGASDLPSGVPSRFSGSGSGTDFTLTISSLQPEDFATYYCQNNYYVGPVSYAFGGGTKVEIKRTVAAPSVFIFPPSDEQLKSGTASVVCLLNNFYPREAKVQWKVDNALQSGNSQESVTEQDSKDSTYSLSSTLTLSKADYEKHKVYACEVTHQGLSSPVTKSFNRGEC [TA25, listing 2 of 2 here] | no binding (tested: 5 µM starting concentration) | no binding (tested: 5 µM starting concentration) | –
